The values that follow are results of earlier work, collected in publication PMC2868910.

The target of the data set is thrombomodulin (Homo sapiens) (UniProt P07204).

Regarding thrombin (from UniProt P00734), the Kd is 0.5 nM.
